Laboratory results as given in patent US20250042956A1 (University of California, published 2025).

Key:
AT5G67580.1 TRB2 [1] = target: T1, AT5G67580.1 TRB2 (Arabidopsis thaliana, UniProt Q9FJW5 1-299); experiment: IP-MS rep 2
T1 construct: Endogenous protein found by mass spectrometry
T1 sequence: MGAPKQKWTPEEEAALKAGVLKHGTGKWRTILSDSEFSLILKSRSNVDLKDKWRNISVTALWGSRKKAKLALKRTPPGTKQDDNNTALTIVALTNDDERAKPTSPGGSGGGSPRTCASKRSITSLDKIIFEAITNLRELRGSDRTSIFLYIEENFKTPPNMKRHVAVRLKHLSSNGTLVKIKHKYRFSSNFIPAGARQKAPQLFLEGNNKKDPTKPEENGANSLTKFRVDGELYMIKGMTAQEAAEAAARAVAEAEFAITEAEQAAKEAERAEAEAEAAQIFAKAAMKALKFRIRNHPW
In short: (§1)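 Peptide counts for co-purified proteins come from mass spectrometry of proteins pulled down from Arabidopsis floral buds with anti-FLAG magnetic beads. Ten grams of unopened buds from wild-type and FLAG-tagged transgenic lines were ground in liquid nitrogen and homogenised in 25 mL IP buffer. Lysates were held with 250 μL anti-FLAG M2 magnetic beads at 4° C for 2 hours, and bound proteins were eluted in TBS with 250 μg/mL 3×FLAG peptides.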

AT3G49850.1 TRB3 [2] = target: T2, AT3G49850.1 TRB3 (Arabidopsis thaliana, UniProt Q9M2X3 1-295); experiment: IP-MS rep 2
T2 construct: Endogenous protein found by mass spectrometry
T2 sequence: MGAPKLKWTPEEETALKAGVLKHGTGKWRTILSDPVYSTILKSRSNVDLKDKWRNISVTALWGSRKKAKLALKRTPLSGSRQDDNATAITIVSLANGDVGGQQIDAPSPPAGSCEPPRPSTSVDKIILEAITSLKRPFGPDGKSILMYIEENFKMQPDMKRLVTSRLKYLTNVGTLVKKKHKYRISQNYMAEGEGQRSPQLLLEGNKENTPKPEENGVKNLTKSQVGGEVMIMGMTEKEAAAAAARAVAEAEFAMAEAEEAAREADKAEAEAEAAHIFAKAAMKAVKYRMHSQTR
In short: as §1

AT5G08450.1 HDC1 [3] = target: T3, AT5G08450.1 HDC1 (Arabidopsis thaliana); experiment: IP-MS rep 2
T3 construct: Endogenous protein found by mass spectrometry
In short: as §1

AT3G10480.3 NAC050 [4] = target: T4, AT3G10480.3 NAC050 (Arabidopsis thaliana, UniProt Q9SQX9 1-447, limits assumed); experiment: IP-MS rep 2
T4 construct: Endogenous protein found by mass spectrometry
T4 sequence (looked up): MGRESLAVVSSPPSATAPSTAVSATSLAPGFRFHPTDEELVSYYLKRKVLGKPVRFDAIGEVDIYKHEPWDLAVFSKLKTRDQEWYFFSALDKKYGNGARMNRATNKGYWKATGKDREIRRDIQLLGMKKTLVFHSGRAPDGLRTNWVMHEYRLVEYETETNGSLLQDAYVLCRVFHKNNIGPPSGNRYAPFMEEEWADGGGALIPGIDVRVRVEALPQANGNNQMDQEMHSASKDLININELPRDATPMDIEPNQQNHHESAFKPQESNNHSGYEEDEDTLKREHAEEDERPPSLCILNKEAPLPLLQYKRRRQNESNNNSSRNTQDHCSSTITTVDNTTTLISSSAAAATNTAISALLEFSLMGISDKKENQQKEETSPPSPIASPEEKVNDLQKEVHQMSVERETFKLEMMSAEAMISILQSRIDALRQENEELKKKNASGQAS
In short: as §1

AT2G17540.2 TRBIP2 [5] = target: T5, AT2G17540.2 TRBIP2 (Arabidopsis thaliana); experiment: IP-MS rep 2
T5 construct: Endogenous protein found by mass spectrometry
T5 chain: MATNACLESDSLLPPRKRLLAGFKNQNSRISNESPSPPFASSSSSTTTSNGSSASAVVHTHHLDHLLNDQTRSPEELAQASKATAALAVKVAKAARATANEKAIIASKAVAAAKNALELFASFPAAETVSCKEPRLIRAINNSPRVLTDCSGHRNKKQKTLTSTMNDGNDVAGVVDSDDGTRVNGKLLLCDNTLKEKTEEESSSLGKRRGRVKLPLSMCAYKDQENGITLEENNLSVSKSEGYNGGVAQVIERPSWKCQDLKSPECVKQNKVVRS
In short: as §1

AT1G49950.3 TRB1 [6] = target: T6, AT1G49950.3 TRB1 (Arabidopsis thaliana, UniProt Q8VWK4 1-300, limits assumed); experiment: IP-MS rep 2
T6 construct: Endogenous protein found by mass spectrometry
T6 sequence: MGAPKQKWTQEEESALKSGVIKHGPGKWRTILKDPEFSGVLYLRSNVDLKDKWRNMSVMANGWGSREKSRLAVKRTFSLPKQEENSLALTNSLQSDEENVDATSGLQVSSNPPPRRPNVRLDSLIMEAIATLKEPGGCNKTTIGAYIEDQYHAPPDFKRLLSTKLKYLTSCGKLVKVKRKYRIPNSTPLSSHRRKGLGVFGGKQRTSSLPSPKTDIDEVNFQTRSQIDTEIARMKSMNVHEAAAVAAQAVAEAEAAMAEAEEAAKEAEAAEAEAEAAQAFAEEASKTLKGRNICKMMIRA
In short: as §1

AT5G67580.1 TRB2 [7] = target: T1, AT5G67580.1 TRB2; experiment: IP-MS rep 1
In short: as §1

AT3G49850.1 TRB3 [8] = target: T2, AT3G49850.1 TRB3; experiment: IP-MS rep 1
In short: as §1

AT5G08450.1 HDC1 [9] = target: T3, AT5G08450.1 HDC1; experiment: IP-MS rep 1
In short: as §1

AT3G10480.3 NAC050 [10] = target: T4, AT3G10480.3 NAC050; experiment: IP-MS rep 1
In short: as §1

AT2G17540.2 TRBIP2 [11] = target: T5, AT2G17540.2 TRBIP2; experiment: IP-MS rep 1
In short: as §1

AT1G49950.3 TRB1 [12] = target: T6, AT1G49950.3 TRB1; experiment: IP-MS rep 1
In short: as §1

PIAL2-Myc = target: T7, PIAL2-Myc (Arabidopsis thaliana, UniProt F4JYG0 1-760); experiment: co-IP, anti-FLAG, crossed lines
T7 construct: not shown: C-terminal 9XMYC tag and BLRP (pEG302 vector)
T7 sequence: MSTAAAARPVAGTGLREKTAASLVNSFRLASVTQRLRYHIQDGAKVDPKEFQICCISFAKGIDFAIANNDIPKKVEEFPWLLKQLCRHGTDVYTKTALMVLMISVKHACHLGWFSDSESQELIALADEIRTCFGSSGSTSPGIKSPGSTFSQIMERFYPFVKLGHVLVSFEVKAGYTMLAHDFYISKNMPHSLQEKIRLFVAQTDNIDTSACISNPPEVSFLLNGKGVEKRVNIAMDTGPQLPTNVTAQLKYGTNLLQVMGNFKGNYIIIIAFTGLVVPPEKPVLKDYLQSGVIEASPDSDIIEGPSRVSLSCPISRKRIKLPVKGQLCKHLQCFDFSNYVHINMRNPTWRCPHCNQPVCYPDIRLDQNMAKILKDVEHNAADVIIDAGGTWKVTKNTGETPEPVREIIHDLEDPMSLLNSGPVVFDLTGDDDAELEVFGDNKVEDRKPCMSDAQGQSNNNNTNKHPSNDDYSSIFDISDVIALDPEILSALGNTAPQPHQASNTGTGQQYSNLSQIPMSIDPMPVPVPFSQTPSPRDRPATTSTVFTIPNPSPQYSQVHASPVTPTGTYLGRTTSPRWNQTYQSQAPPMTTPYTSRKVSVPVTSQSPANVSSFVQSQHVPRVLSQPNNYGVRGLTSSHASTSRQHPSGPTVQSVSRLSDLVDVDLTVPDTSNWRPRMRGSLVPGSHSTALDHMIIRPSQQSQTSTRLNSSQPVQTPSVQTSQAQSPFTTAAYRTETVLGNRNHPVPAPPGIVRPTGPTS
Protocol: The Co-IP assays in this study were performed by following previous protocol (see e.g., Wang, Science, 2016) with some modifications. 2 grams of 2-week-old seedling tissue were collected from Arabidopsis transgenic lines: JMJ14-FLAG×TRB1-Myc and TRB1-Myc; MORC6-FLAG×PIAL2-Myc and PIAL2-Myc. The samples were ground into fine powder with liquid nitrogen, resuspended with 10 mL IP buffer, and incubate 20 minutes at 4° C. The lysate was centrifuged and filtered through Miracloth for two times, and the supernatant was incubated with 30 μL anti-FLAG M2 Affinity Gel (Millipore) for 2 hours at 4° C. The anti-FLAG beads were washed with IP buffer for a total of 5 times, and the protein was eluted with 40 μL elution buffer (IP buffer containing 100 μg/mL 3×FLAG peptide as final concentration). The supernatant was mixed with 5×SDS loading buffer and subject to Western blot.

B1: TRBIP1 (bait of the TRBIP1 IP-MS) (other, not shown: small tags and cut ends)
chain: METNPCDMNQLDSDSHLPPRKRLLAGFKKFNSNGINGSSPSDFASSSSTSNSNGSSSASTNVQTHLGNLLSSPFNNDQSPEELVEATRSAAALAVKAAKAARAIANEKALISAKAIAAAKRALELVDSFPKEAMADCKERSPRKNKQKKHVPVELLYSKGQLRDEEDDLARRLHRAIDNTSYPRVLRTSEENGQRYKKQKKNKSVVEGGSSSIIVTGSMKDIAGVVDSDSSYEGLEIARSNRDEADSMLMMEKSGEESNSLVKRRGRVKLKKLPLSICNSRNQENGTSSASPLPVAQPQEDGGAITVIAGSSSWKCQDIKAPECVKQNKAVRS
notes: tag and its position not described; also called TRBIP1-1; TRBIP1-2
What does the source list for B1?
IP-MS count (AT5G67580.1 TRB2 [1]): 36; IP-MS count (AT3G49850.1 TRB3 [2]): 19; IP-MS count (AT5G08450.1 HDC1 [3]): 2; IP-MS count (AT3G10480.3 NAC050 [4]): 0; IP-MS count (AT2G17540.2 TRBIP2 [5]): 0; IP-MS count (AT1G49950.3 TRB1 [6]): 15; IP-MS count (AT5G67580.1 TRB2 [7]): 66; IP-MS count (AT3G49850.1 TRB3 [8]): 31; IP-MS count (AT5G08450.1 HDC1 [9]): 8; IP-MS count (AT3G10480.3 NAC050 [10]): 2; IP-MS count (AT2G17540.2 TRBIP2 [11]): 0; IP-MS count (AT1G49950.3 TRB1 [12]): 39

B2: MORC6-FLAG (other, Arabidopsis thaliana, UniProt Q56Y74 1-663, looked up)
chain: MSHDRSVNVSHDAVIAKPERGTMLQSFSPRSHGSKGYSLPQDSEENRGSVGQSAGQSSTSVVDQVRSPADDAGVTSSSTICPAPVCRQFWKAGSYNDELSSKSQQPNGKNYLHVHPMFLHSNATSHKWAFGAVAELLDNAVDEIQNGATFVIVDKTTNPRDGATALLIQDDGGGMDPQAMRHCMGFGFSDKKSDSAIGRYGNGFKTSTMRLGADVIVFSRHSKNQTLTQSIGLLSYTYLTRTGHDRIVVPILDYEFNASAGEFKTLQDREHFISSLSILLEWSPFSTEAELLQQFDDVGPHGTKVIIYNMWLNSDAKLELDFDSVAEDILIEGSIKKTGSKIVNDHIASRFSYSLRVYLSILYLRIPETFKIILRGKVVEHHNVADDLMHPQYILYKPQAAGSEEALVVTTIGFLKEAPKVNLHGFCVYHKNRLIMPFWQVINYSSSRGRGVVGVLEANFVEPTHNKQDFEKTVLLQKLENRLKEMTVEYWSCHCVLIGYQVNKKPRLQIPQKVQPAGRQALSPPPGFQAVFPQGNTTSLPRVSTQPVLLEKRKEHPDSVASAALKRKVGNDDFTVPGHIRVEQFIHGSASQSQDIETVKLMEENKKLRAKCLDRKVRSQNLEVKAMNLRSELENYKSEYERLMVELQALDLVKDEHRRNVNT
notes: not shown: FLAG tag (3xFLAG-BLRP vector described)
Does B2 bind (PIAL2-Myc)?
Result: binds
